Reference: patent publication US20090149389A1 (PURDUE RESEARCH FOUNDATION, published 2009)

Key:
Assay in all cases: cell-based or functional assay
IRAK4 (h) = target: T1, IRAK4 (h) (human (h), UniProt Q9NWZ3 1-460, limits assumed)
T1 sequence (looked up): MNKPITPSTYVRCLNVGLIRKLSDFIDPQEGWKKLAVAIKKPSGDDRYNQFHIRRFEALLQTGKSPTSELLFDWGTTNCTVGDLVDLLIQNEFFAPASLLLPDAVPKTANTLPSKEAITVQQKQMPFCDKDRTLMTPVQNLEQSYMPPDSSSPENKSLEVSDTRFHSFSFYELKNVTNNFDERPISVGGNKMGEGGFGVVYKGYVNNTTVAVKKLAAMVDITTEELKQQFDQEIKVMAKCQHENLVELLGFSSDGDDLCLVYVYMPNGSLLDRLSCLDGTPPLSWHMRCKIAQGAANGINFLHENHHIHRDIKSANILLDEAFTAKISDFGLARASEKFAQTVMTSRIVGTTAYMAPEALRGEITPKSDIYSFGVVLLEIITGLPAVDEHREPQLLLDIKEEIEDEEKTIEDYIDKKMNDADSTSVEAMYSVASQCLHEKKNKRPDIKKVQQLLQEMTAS

MEKI (h) = MEKI (h) (human (h), UniProt Q02750 1-393)
PKB β (h) = PKB β (h) (human (h), UniProt P31751 1-481, limits assumed)
Sequence of PKB β (h) (P31751 whole entry): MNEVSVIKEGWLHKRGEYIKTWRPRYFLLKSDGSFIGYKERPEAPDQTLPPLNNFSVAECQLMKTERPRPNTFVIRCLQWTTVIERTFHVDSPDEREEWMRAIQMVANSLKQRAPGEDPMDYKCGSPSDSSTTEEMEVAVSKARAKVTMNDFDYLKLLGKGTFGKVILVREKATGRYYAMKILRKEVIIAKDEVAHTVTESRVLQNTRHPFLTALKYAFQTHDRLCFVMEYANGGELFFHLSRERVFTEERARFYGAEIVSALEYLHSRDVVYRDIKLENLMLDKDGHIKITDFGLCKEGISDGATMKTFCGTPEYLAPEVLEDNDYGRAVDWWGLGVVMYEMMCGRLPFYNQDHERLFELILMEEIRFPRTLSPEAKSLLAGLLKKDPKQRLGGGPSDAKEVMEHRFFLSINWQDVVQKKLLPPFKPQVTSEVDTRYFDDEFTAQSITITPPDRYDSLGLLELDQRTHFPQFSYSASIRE

cKit (h) = cKit (h) (human (h), UniProt P10721 544-976, limits assumed)
Sequence of cKit (h) (P10721 544-976 limits assumed): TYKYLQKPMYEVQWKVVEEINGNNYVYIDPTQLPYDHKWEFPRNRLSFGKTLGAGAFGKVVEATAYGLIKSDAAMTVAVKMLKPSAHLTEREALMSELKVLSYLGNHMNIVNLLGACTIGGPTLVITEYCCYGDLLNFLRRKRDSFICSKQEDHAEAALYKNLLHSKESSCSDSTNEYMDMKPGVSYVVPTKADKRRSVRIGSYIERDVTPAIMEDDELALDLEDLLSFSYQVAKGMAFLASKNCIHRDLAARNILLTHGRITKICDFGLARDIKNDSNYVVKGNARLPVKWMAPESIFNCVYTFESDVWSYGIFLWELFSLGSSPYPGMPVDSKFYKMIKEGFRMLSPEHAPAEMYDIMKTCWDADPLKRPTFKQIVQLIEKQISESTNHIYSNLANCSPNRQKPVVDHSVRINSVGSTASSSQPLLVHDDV

SAPK2 a (h) = SAPK2 a (h) (human (h), UniProt Q16539 1-360)
Sequence of SAPK2 a (h) (Q16539 whole entry): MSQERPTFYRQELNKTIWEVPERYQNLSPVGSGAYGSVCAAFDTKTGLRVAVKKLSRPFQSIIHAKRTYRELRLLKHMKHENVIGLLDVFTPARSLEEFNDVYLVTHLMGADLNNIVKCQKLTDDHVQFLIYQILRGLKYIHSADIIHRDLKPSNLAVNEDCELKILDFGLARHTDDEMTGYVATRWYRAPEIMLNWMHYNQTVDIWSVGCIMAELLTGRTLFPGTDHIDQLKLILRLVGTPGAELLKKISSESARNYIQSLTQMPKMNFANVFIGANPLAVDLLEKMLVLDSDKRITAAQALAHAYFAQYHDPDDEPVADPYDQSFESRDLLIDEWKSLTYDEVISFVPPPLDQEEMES

Aurora-A (h) = target: T2, Aurora-A (h) (human (h), UniProt O14965 1-403)
T2 sequence (looked up): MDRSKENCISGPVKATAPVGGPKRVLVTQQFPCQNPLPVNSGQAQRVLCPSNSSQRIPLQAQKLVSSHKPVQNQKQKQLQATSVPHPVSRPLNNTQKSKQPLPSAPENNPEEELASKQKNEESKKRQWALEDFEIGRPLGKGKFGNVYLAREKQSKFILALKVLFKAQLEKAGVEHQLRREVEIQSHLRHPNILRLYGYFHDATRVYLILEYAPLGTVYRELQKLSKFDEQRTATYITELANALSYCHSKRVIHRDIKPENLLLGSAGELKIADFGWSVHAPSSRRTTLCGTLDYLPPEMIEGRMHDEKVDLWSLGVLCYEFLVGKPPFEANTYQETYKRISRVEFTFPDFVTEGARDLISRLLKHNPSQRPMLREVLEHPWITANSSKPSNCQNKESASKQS

CHK1 (h) = target: T3, CHK1 (h) (human (h), UniProt O14757 1-476)
T3 sequence (looked up): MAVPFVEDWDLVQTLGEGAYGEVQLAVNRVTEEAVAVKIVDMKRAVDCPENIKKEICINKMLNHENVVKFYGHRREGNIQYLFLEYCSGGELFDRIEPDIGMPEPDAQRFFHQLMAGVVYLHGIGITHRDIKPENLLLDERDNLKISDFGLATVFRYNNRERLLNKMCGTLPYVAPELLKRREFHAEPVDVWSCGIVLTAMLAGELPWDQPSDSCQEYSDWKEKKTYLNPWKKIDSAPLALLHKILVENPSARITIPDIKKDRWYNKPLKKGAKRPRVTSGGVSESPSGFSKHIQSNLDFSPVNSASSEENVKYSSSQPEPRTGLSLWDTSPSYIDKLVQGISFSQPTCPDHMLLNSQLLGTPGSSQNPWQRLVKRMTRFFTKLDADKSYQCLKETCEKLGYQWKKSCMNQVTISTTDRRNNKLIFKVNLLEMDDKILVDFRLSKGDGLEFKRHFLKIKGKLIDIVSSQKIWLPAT

BTK (h) = BTK (h) (human (h), UniProt Q06187 1-659)
Sequence of BTK (h) (Q06187 whole entry): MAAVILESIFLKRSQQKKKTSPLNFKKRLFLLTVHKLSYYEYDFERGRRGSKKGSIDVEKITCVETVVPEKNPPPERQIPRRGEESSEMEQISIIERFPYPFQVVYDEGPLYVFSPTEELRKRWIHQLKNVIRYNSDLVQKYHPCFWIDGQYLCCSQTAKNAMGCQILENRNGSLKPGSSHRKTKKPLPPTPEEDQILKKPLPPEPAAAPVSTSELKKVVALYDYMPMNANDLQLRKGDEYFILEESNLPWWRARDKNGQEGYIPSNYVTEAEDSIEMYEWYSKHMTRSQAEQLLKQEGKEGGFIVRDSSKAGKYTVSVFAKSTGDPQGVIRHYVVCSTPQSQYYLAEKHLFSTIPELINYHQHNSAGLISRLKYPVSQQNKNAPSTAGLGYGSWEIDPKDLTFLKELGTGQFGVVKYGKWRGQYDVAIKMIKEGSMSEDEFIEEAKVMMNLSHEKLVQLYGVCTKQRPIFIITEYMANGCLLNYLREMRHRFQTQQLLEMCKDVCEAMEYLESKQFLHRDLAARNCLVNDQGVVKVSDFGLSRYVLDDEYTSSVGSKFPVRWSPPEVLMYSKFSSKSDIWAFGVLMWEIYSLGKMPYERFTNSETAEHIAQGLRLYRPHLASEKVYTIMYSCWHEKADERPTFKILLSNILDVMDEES

KDR (tl) = KDR (tl) (UniProt P35968 790-1356, limits assumed)
Sequence of KDR (tl) (P35968 790-1356 limits assumed): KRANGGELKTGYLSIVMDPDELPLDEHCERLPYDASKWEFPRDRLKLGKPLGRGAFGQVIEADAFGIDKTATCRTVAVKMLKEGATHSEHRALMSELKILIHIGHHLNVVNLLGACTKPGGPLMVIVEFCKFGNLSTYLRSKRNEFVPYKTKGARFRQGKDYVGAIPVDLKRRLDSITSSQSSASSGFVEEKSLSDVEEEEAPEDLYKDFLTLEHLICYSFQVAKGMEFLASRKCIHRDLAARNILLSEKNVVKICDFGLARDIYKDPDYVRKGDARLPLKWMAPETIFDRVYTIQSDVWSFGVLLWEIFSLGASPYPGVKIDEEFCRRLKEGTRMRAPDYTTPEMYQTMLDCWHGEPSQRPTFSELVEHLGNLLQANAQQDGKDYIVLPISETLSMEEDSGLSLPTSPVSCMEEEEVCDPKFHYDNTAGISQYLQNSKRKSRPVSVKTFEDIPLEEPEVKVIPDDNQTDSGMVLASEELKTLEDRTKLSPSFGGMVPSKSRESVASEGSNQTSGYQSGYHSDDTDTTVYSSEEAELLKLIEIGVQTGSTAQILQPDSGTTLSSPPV

PKA (h) = PKA (h) (human (h), UniProt P17612 1-351)
Flt3 (h) = target: T4, Flt3 (h) (human (h), UniProt P36888 564-993, limits assumed)
T4 sequence (looked up): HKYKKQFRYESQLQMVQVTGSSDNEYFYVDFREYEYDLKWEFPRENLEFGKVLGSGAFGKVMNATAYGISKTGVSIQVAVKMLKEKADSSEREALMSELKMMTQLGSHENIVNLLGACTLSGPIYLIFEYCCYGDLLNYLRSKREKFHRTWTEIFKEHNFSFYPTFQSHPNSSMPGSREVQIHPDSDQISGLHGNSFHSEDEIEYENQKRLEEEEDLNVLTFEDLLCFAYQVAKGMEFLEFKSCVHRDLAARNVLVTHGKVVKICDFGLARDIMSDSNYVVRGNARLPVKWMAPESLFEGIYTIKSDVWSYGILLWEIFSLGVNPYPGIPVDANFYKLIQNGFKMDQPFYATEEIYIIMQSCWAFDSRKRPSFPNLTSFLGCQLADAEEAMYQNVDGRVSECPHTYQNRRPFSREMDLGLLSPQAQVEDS

PDGFRβ (h) = PDGFRβ (h) (human (h), UniProt P09619 558-1106, limits assumed)
Sequence of PDGFRβ (h) (P09619 558-1106 limits assumed): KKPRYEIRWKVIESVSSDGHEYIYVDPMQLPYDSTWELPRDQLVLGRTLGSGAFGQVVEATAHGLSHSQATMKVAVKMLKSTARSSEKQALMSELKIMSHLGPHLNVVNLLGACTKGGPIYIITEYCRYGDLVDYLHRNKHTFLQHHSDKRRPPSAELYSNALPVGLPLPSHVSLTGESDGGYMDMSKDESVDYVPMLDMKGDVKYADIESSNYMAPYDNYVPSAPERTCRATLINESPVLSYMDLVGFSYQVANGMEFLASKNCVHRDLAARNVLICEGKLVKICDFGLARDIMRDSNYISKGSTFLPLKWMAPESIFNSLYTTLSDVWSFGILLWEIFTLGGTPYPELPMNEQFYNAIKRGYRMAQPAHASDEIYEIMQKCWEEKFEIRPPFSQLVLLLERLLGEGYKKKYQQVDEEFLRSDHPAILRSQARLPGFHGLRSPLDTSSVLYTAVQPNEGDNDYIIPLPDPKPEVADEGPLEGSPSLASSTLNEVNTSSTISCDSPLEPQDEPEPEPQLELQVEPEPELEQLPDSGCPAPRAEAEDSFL

ROCK-1 (h) = ROCK-1 (h) (human (h), UniProt Q13464 17-535, limits assumed)
Sequence of ROCK-1 (h) (Q13464 17-535 limits assumed): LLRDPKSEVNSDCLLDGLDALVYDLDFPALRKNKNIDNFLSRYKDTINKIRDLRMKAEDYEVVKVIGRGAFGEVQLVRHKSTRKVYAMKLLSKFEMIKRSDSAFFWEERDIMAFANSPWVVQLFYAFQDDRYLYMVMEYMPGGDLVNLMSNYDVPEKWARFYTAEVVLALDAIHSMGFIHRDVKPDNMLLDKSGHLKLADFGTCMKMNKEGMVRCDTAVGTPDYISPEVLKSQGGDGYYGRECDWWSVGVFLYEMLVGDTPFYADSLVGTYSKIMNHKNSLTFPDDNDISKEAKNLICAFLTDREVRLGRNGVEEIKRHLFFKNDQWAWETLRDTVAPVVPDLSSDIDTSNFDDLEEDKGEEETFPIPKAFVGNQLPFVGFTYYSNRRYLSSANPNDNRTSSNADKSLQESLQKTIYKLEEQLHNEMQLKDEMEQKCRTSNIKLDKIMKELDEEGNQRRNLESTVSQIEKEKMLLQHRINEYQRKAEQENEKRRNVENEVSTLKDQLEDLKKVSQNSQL

Rsk2 (h) = Rsk2 (h) (human (h), UniProt P51812 1-740)
Sequence of Rsk2 (h) (P51812 whole entry): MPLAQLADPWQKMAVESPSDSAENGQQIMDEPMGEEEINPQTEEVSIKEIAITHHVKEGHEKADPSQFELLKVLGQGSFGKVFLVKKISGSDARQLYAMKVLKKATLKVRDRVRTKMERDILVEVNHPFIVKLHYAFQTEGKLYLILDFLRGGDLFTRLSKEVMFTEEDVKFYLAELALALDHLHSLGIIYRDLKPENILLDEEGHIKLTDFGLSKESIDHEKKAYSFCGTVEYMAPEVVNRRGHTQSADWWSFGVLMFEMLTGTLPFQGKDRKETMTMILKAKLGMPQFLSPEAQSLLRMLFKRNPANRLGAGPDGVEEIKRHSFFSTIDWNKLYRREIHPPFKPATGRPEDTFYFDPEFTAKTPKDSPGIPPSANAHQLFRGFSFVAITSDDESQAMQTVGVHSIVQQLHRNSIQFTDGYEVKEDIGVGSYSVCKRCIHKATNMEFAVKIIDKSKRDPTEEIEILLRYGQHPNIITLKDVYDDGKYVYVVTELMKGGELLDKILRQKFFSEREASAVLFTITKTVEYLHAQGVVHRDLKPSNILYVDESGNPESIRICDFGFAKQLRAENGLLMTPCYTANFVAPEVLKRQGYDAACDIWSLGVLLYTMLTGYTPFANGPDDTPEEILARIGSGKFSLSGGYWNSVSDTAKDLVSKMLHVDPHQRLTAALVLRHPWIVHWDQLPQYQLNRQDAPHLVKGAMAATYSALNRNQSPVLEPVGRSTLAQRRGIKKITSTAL

CK2 (h) = CK2 (h) (human (h), UniProt P68400 1-391)
Sequence of CK2 (h) (P68400 whole entry): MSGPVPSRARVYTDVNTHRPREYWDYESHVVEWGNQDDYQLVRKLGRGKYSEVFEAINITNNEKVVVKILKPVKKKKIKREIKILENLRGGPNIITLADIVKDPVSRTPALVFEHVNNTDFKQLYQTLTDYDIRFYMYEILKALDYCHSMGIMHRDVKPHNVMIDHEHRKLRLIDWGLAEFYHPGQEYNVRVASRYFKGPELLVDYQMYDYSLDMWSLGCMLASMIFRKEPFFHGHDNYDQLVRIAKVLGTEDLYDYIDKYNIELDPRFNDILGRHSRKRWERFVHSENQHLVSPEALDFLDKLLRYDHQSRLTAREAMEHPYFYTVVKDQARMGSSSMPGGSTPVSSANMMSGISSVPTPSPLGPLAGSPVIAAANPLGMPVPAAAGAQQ

EGFR (h) = EGFR (h) (human (h), UniProt P00533 696-1210, limits assumed)

## WLRRIKAWLRRIKALNRQLGVAA
IRAK4 (h)
  Profile-1 @ = 30 µm (kinase profiler assay): 12
MEKI (h)
  Profile-1 @ = 30 µm (kinase profiler assay): 14
PKB β (h)
  Profile-1 @ = 30 µm (kinase profiler assay): 18
cKit (h)
  Profile-1 @ = 30 µm (kinase profiler assay): 23
SAPK2 a (h)
  Profile-1 @ = 30 µm (kinase profiler assay): 61
Aurora-A (h)
  Profile-1 @ = 30 µm (kinase profiler assay): 46
CHK1 (h)
  Profile-1 @ = 30 µm (kinase profiler assay): 31
BTK (h)
  Profile-1 @ = 30 µm (kinase profiler assay): 5
KDR (tl)
  Profile-1 @ = 30 µm (kinase profiler assay): 27
PKA (h)
  Profile-1 @ = 30 µm (kinase profiler assay): 80
Flt3 (h)
  Profile-1 @ = 30 µm (kinase profiler assay): 38
PDGFRβ (h)
  Profile-1 @ = 30 µm (kinase profiler assay): 42
ROCK-1 (h)
  Profile-1 @ = 30 µm (kinase profiler assay): 0
Rsk2 (h)
  Profile-1 @ = 30 µm (kinase profiler assay): 14
CK2 (h)
  Profile-1 @ = 30 µm (kinase profiler assay): 114
EGFR (h)
  Profile-1 @ = 30 µm (kinase profiler assay): 10
